Data as given in US8586706B2, “Peptide vaccine using mimic molecules of amyloid β peptide” (Kagoshima University, priority 2007, dated 2013).
No end group written: not given here. *: point of attachment. Biotin = O=C1N[C@H]2[C@H](CS[C@H]2CCCCC(=O)*)N1

What was measured:
Aβ1-42 peptide = biological target: T1, Aβ1-42 peptide (Homo sapiens, UniProt P05067); assay: Experiment of inhibition of amyloid β fibrillogenesis (thioflavine T fluorescence); type: biochemical; conditions: peptide 1.65, 16.5, 33 nM; Aβ1-42 40 μM, phosphate buffer pH 7.0; 0, 6, 24 hours; FIG. 8
T1 construct: Aβ1-42 was dissolved at a concentration of 40 μM in 20 mM phosphate buffer
T1 sequence (P05067 672-713 limits assumed): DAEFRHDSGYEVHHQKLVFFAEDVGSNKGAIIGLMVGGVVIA
Experimental: The synthesized peptide (TAT-B6-L1, B6-L1-TAT, TAT-B7-C15, or TAT-B7-S15) was added at various concentrations (1.65 nM, 16.5 nM, and 33 nM) to the Aβ1-42 peptide diluted to 40 μM using 20 mM phosphate buffer (pH 7.0). The sample (10 μl) was recovered 0, 6, and 24 hours thereafter, 90 μl of 11 μM thioflavine T (Sigma)/phosphate buffer was added, and fluorescence intensity at 482 nm generated by the excitation light at 450 nm was measured using a multilabel plate counter, Wallac 1420 ARVO sx (Perkin-Elmer; Wellesley, Mass.).
Results of measuring activity of inhibiting Aβ1-42 fibrillogenesis by a fusion peptide of TAT and B6-L1, B7-C15, or B7-S15 are shown in FIG. 8. The experiment of inhibition of fibrillogenesis was conducted according to the procedures described in the experiment of inhibition of fibrillogenesis above.

B6 scFv = assay: ELISA: binding of B6 scFv to plate-coated synthesized TAT fusion peptide; design: species or system human; conditions: ELISA plate coated with peptide 200 ng/well; B6 scFv at various concentrations; FIG. 7
Chain of B6 scFv (as listed by the source): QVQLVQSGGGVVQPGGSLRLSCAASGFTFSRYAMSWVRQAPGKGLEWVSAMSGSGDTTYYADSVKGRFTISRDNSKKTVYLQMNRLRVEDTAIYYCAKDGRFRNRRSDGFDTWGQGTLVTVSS
Chain of B6 scFv (as listed by the source): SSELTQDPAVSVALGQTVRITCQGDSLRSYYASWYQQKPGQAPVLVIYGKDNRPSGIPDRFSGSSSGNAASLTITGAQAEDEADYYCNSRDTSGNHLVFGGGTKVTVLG
Experimental: (5) The fusion peptide of TAT and B6-L1 was recognized by B6 scFv (FIG. 7). An ELISA plate was coated with the synthesized peptide TAT-B6-L1 or B6-L1-TAT under conditions of 200 ng/well. After addition of B6 scFv at various concentrations, binding activity thereof was inspected. A control peptide used was an unrelated peptide (GSGGGSCGYWRSEWGLCG)(SEQ ID NO: 32).

[1] = biological target: T2, Aβ oligomers and Aβ fibers (Homo sapiens, UniProt P05067); assay: Experiment of precipitation of Aβ conformers by biotinylated peptide with streptavidin-magnet beads, Western blot; type: binding; conditions: biotinylated peptide added 1.5 hours after dissolution of Aβ1-42, FIG. 9
T2 construct: Aβ1-42 was dissolved at a concentration of 40 μM in 20 mM phosphate buffer
T2 sequence (P05067 672-713 limits assumed): as the sequence (P05067 672-713 limits assumed) above
Experimental: Aβ1-42 was dissolved at a concentration of 40 μM in 20 mM phosphate buffer (pH 7.0). The TAT-B6-L1 or TAT-B7-C15 peptide adjusted to 40 μM was added 1.5 hours thereafter at a ratio of 1:1 by liquid volume, and the reaction was allowed to proceed at 37° C. for 1 hour (final concentration: Aβ (20 μM)/synthesized peptide (20 μM)). After the reaction, an aliquot thereof was sampled as a sample before immunoprecipitation (“Before precipitation”), and the remaining sample was reacted with M-280 streptavidin-magnet beads (Dynal Biotech, Oslo, Norway) adjusted to 20 μg/μl on ice for 1 hour at a ratio of 1:1 by liquid volume (final concentration: Aβ (10 μM)/synthesized peptide (10 μM)/beads (10 μg/μl)). After the reaction, the beads were precipitated using a magnet to obtain “Supernatant.” To the precipitated beads, PBS was added in a liquid volume equal to that of the recovered supernatant to obtain a “Precipitate.” Each obtained sample was electrophoresed and subjected to Western blot analysis using anti-Aβ antibodies.
Aβ1-42 was dissolved at a concentration of 40 μM in 20 mM phosphate buffer (pH 7.0). The biotinylated TAT-B6-L1 or TAT-B7-C15 peptide was added thereto 1.5 hours thereafter, and the conjugates were precipitated using streptavidin-magnet beads.

Substance | activity of inhibiting Aβ1-42 fibrillogenesis (Aβ1-42 peptide) | binding activity of B6 scFv to coated peptide (B6 scFv) | precipitation of Aβ oligomers or Aβ fibers by the peptide [1]
B6-L1-TAT: B6-L1 sequence having a TAT sequence fused at the carboxyl terminus, SEQ ID NO: 25 (Biotin-GMLDIFAPIRHVYGRKKRRQRRR) | demonstrated to have the activity of inhibiting fibrillogenesis | Binding reaction dependent on the amount of B6 scFv was observed | 
GSGGGSCGYWRSEWGLCG (Designed peptide based on the sequence unrelated to B6 scFv) [control peptide, reference compound] | no inhibiting activity |  | No precipitation reaction was observed
TAT-B6-L1: B6-L1 sequence having a TAT sequence fused at the amino terminus, SEQ ID NO: 24 (Biotin-YGRKKRRQRRRGMLDIFAPIRHV) | demonstrated to have the activity of inhibiting fibrillogenesis | Binding reaction dependent on the amount of B6 scFv was observed | such Aβ oligomers or Aβ fibers were observed in the precipitate
TAT-B7-C15: B7-C15 sequence (glycine added to carboxyl terminus) having a TAT sequence fused at the amino terminus, SEQ ID NO: 26 (Biotin-YGRKKRRQRRRCYGTKPWMCG; cysteine pairing not given here) | demonstrated to have the activity of inhibiting fibrillogenesis |  | such Aβ oligomers or Aβ fibers were observed in the precipitate
TAT-B7-S15: B7-S15 sequence having a TAT sequence fused at the amino terminus, SEQ ID NO: 27 (Biotin-YGRKKRRQRRRSYGTKPWMSG) | demonstrated to have the activity of inhibiting fibrillogenesis |  | 
